Measured values: patent publication US20100158968A1 (PURDUE RESEARCH FOUNDATION, published 2010)
Non-standard residues stand in square brackets, D forms with d. No end group written: not given here.

How the values were obtained:
Assay in all cases: cell-based or functional assay
[1] = target: T1, mitogen-activated protein kinase-activated protein kinase 2 (human MK2) (human, UniProt P49137 46-400, limits assumed)
[2] = target: MLCK (h) (myosin light chain kinase) (human)
[3] = target: CaMKI (h) (calcium/calmodulin-dependent protein kinase) (human, UniProt Q14012 1-370, limits assumed)
[4] = target: SAPK2a (h) (p38α) (human, UniProt Q16539 1-360)
[5] = target: ROCK-I (h) (Rho-associated serine/threonine kinase) (human, UniProt Q13464 17-535, limits assumed)
[6] = target: T2, IRAK4 (h) (IL-1 receptor (IL-1R)-associated kinase) (human, UniProt Q9NWZ3 1-460, limits assumed)
T2 sequence (looked up): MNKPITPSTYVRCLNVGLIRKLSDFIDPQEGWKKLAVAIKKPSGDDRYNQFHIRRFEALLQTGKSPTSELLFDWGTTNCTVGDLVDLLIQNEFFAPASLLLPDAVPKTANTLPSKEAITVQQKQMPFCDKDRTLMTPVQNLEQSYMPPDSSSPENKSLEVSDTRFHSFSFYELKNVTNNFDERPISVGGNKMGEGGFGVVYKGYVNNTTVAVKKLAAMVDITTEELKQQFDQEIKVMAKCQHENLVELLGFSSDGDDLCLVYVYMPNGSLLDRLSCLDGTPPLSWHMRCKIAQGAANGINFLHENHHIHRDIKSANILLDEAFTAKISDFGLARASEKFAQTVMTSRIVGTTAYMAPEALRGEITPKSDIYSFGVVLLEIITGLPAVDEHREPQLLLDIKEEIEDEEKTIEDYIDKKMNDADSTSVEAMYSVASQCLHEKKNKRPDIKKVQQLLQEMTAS

[7] = target: MK3 (mitogen-activated protein kinase-activated protein kinase 3) (human, UniProt Q16644 1-382, limits assumed)
[8] = target: T3, PRAK (h) (p38 regulated/activated protein kinase) (human, UniProt Q8IW41 1-473, limits assumed)
T3 sequence (looked up): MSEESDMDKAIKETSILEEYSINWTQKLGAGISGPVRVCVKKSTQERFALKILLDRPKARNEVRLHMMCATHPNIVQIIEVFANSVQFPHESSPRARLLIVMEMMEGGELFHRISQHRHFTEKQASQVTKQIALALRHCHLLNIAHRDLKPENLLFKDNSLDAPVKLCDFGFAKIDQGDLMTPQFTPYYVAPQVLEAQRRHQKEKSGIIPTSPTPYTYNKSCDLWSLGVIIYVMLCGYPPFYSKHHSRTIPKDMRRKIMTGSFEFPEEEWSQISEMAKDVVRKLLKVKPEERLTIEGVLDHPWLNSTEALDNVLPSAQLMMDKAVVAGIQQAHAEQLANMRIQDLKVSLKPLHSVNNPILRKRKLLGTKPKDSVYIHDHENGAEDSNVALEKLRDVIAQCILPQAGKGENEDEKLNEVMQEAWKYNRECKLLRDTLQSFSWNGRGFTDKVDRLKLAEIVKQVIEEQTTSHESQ

[9] = target: T1, mitogen-activated protein …; remark: listed apart in the source
[10] = target: PKBβ (h) (protein kinase B) (human, UniProt P31751 120-481, limits assumed)
PKBβ (h) (protein kinase B), sequence (P31751 120-481 limits assumed): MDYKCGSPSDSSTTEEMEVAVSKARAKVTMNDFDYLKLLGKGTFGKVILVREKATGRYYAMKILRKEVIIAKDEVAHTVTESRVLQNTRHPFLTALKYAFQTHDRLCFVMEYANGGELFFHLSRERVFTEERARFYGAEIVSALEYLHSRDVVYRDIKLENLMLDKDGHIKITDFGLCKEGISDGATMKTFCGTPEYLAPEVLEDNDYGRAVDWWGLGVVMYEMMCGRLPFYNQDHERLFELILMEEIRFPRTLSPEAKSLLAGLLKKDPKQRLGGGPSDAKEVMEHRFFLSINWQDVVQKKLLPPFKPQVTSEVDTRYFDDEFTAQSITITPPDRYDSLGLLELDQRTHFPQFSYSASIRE

SAPK2a (h) (p38α), sequence (Q16539 whole entry): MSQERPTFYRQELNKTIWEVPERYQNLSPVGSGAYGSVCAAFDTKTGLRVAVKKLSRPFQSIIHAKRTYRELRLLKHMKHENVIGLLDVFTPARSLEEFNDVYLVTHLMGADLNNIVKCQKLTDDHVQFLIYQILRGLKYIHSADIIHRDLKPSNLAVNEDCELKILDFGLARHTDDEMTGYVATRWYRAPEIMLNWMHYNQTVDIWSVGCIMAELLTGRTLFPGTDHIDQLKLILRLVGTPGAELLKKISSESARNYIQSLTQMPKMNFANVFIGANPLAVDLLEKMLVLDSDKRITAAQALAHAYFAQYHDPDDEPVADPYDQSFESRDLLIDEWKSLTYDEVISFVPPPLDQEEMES
T1 sequence (P49137 46-400 limits assumed): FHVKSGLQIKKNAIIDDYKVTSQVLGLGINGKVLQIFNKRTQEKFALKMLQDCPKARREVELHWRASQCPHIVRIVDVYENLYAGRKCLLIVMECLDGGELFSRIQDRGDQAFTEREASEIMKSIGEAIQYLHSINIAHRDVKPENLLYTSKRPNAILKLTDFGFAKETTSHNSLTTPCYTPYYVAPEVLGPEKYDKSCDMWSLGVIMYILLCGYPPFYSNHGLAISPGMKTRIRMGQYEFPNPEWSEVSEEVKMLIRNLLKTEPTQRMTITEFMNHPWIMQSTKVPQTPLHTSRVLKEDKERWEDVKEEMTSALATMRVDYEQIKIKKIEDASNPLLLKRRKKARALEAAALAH
ROCK-I (h) (Rho-associated serine/threonine kinase), sequence (Q13464 17-535 limits assumed): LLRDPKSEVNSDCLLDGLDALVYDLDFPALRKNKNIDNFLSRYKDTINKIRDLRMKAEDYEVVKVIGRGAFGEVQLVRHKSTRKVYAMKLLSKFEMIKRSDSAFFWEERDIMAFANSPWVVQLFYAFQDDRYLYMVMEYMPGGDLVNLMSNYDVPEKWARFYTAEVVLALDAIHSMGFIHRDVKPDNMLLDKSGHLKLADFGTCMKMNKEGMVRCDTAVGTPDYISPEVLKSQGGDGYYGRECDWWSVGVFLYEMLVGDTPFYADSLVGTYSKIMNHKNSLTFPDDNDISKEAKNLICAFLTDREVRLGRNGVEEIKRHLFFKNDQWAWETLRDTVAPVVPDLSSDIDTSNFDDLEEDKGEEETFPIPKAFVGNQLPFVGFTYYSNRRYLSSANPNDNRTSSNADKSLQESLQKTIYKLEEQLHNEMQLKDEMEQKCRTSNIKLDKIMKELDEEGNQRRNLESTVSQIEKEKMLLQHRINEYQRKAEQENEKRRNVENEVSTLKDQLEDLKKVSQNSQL
CaMKI (h) (calcium/calmodulin-dependent protein kinase), sequence (Q14012 whole entry): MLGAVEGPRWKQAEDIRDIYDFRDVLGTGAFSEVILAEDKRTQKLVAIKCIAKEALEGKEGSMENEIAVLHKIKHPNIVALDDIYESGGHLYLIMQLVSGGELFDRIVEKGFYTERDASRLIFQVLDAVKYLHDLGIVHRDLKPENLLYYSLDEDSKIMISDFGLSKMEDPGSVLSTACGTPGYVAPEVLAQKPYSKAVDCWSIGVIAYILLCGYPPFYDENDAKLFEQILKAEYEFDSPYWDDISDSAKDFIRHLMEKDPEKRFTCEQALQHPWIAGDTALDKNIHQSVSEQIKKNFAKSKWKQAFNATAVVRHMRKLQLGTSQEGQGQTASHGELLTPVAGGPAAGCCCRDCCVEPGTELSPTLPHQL
MK3 (mitogen-activated protein kinase-activated protein kinase 3), sequence (Q16644 whole entry): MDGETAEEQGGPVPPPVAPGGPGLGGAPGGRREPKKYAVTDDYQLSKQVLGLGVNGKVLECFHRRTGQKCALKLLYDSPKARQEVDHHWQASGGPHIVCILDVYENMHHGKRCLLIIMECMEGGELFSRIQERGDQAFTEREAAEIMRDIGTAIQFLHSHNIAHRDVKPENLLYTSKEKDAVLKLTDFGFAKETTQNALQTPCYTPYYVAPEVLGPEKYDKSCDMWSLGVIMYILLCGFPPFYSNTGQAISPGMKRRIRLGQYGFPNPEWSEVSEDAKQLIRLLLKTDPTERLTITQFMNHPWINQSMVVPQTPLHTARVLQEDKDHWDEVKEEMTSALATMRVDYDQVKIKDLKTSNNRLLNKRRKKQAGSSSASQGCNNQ

Binder: WLRRIKAWLRRIKALNRQLGV
- % change in MK2 reaction velocity vs unsubstituted …, peptide at 100 µM [1]: -132%

Binder: WLRRIKA [WLRRIKA (non-functional)]
- % change in MK2 reaction velocity vs unsubstituted …, peptide at 100 µM [1]: 4310%

Binder: KAANRQLGVAA
- % change in MK2 reaction velocity vs unsubstituted …, peptide at 100 µM [1]: 52%

Binder: KALNRQLGVAA [Alanine-substitution peptide printed as KALNRQLGVAA (Table 1, fourth alanine row)]
- % change in MK2 reaction velocity vs unsubstituted …, peptide at 100 µM [1]: 258%

Binder: KALNRQAGVAA
- % change in MK2 reaction velocity vs unsubstituted …, peptide at 100 µM [1]: 18%

Binder: WLRRIKAWLRRIKA
- % change in MK2 reaction velocity vs unsubstituted …, peptide at 100 µM [1]: -83%

B1: KALNRdQLGVAA (peptide)
peptide: KALNR[dQ]LGVAA-NH2
modifications: N-terminus assumed
SMILES: CC(C)C[C@H](NC(=O)[C@H](C)NC(=O)[C@@H](N)CCCCN)C(=O)N[C@@H](CC(N)=O)C(=O)N[C@@H](CCCNC(=N)N)C(=O)N[C@H](CCC(N)=O)C(=O)N[C@@H](CC(C)C)C(=O)NCC(=O)N[C@H](C(=O)N[C@@H](C)C(=O)N[C@@H](C)C(N)=O)C(C)C
- % change in MK2 reaction velocity vs unsubstituted …, peptide at 100 µM [1]: 176%

B2: KALdNRQLGVAA (peptide)
peptide: KAL[dN]RQLGVAA-NH2
modifications: N-terminus assumed
SMILES: CC(C)C[C@H](NC(=O)[C@H](C)NC(=O)[C@@H](N)CCCCN)C(=O)N[C@H](CC(N)=O)C(=O)N[C@@H](CCCNC(=N)N)C(=O)N[C@@H](CCC(N)=O)C(=O)N[C@@H](CC(C)C)C(=O)NCC(=O)N[C@H](C(=O)N[C@@H](C)C(=O)N[C@@H](C)C(N)=O)C(C)C
- % change in MK2 reaction velocity vs unsubstituted …, peptide at 100 µM [1]: -5%

Binder: YARAAARQARALARQLGVAA
- Kinase Activity, peptide at 300 µM, radiometric assay [2]: 9%
- Kinase Activity, peptide at 300 µM, radiometric assay [3]: 2%
- Kinase Activity, peptide at 300 µM, radiometric assay [4]: 66%
- Kinase Activity, peptide at 300 µM, radiometric assay [5]: 27%
- Kinase Activity, peptide at 300 µM, radiometric assay [6]: 23%
- Kinase Activity, peptide at 300 µM, radiometric assay [7]: 5%
- Kinase Activity, peptide at 300 µM, radiometric assay [8]: 86%
- Kinase Activity, peptide at 300 µM, radiometric assay [9]: -7%
- Kinase Activity, peptide at 300 µM, radiometric assay [10]: 17%

Binder: FAKLAARLYRLARQLGVAA
- Kinase Activity, peptide at 100 µM, radiometric assay [2]: 1%
- Kinase Activity, peptide at 100 µM, radiometric assay [3]: 0%
- Kinase Activity, peptide at 100 µM, radiometric assay [4]: 30%
- Kinase Activity, peptide at 100 µM, radiometric assay [5]: 25%
- Kinase Activity, peptide at 100 µM, radiometric assay [6]: 13%
- Kinase Activity, peptide at 100 µM, radiometric assay [7]: 10%
- Kinase Activity, peptide at 100 µM, radiometric assay [8]: 131%
- Kinase Activity, peptide at 100 µM, radiometric assay [9]: 5%
- Kinase Activity, peptide at 100 µM, radiometric assay [10]: 16%

B3: KAdLNRQLGVAA (peptide)
peptide: KA[dL]NRQLGVAA-NH2
modifications: N-terminus assumed
SMILES: CC(C)C[C@H](NC(=O)[C@H](CCC(N)=O)NC(=O)[C@H](CCCNC(=N)N)NC(=O)[C@H](CC(N)=O)NC(=O)[C@@H](CC(C)C)NC(=O)[C@H](C)NC(=O)[C@@H](N)CCCCN)C(=O)NCC(=O)N[C@H](C(=O)N[C@@H](C)C(=O)N[C@@H](C)C(N)=O)C(C)C
- % change in MK2 reaction velocity vs unsubstituted …, peptide at 100 µM [1]: 46%

B4: KALNRQLGdVAA (peptide)
peptide: KALNRQLG[dV]AA-NH2
modifications: N-terminus assumed
SMILES: CC(C)C[C@H](NC(=O)[C@H](C)NC(=O)[C@@H](N)CCCCN)C(=O)N[C@@H](CC(N)=O)C(=O)N[C@@H](CCCNC(=N)N)C(=O)N[C@@H](CCC(N)=O)C(=O)N[C@@H](CC(C)C)C(=O)NCC(=O)N[C@@H](C(=O)N[C@@H](C)C(=O)N[C@@H](C)C(N)=O)C(C)C
- % change in MK2 reaction velocity vs unsubstituted …, peptide at 100 µM [1]: 160%

Binder: WLRRIKAWLRRIKALNRQLGVAA
- Kinase Activity, peptide at 30 µM, radiometric assay [2]: 4%
- Kinase Activity, peptide at 30 µM, radiometric assay [3]: 9%
- Kinase Activity, peptide at 30 µM, radiometric assay [4]: 61%
- Kinase Activity, peptide at 30 µM, radiometric assay [5]: 0%
- Kinase Activity, peptide at 30 µM, radiometric assay [6]: 12%
- Kinase Activity, peptide at 30 µM, radiometric assay [7]: 16%
- Kinase Activity, peptide at 30 µM, radiometric assay [8]: 67%
- Kinase Activity, peptide at 30 µM, radiometric assay [9]: 2%
- Kinase Activity, peptide at 30 µM, radiometric assay [10]: 18%

B5: KALNdRQLGVAA (peptide)
peptide: KALN[dR]QLGVAA-NH2
modifications: N-terminus assumed
SMILES: CC(C)C[C@H](NC(=O)[C@H](C)NC(=O)[C@@H](N)CCCCN)C(=O)N[C@@H](CC(N)=O)C(=O)N[C@H](CCCNC(=N)N)C(=O)N[C@@H](CCC(N)=O)C(=O)N[C@@H](CC(C)C)C(=O)NCC(=O)N[C@H](C(=O)N[C@@H](C)C(=O)N[C@@H](C)C(N)=O)C(C)C
- % change in MK2 reaction velocity vs unsubstituted …, peptide at 100 µM [1]: 206%

Binder: KALNRQLAVAA
- % change in MK2 reaction velocity vs unsubstituted …, peptide at 100 µM [1]: -28%

Binder: KAFAKLAARLYRLARQLGVAA
- Kinase Activity, peptide at 100 µM, radiometric assay [2]: 2%
- Kinase Activity, peptide at 100 µM, radiometric assay [3]: 0%
- Kinase Activity, peptide at 100 µM, radiometric assay [4]: 59%
- Kinase Activity, peptide at 100 µM, radiometric assay [5]: 29%
- Kinase Activity, peptide at 100 µM, radiometric assay [6]: 16%
- Kinase Activity, peptide at 100 µM, radiometric assay [7]: 17%
- Kinase Activity, peptide at 100 µM, radiometric assay [8]: 148%
- Kinase Activity, peptide at 100 µM, radiometric assay [9]: 8%
- Kinase Activity, peptide at 100 µM, radiometric assay [10]: 28%

Binder: KALARQLGVAA
- % change in MK2 reaction velocity vs unsubstituted …, peptide at 100 µM [1]: -61%

Binder: KALNRQLGVA
- % change in MK2 reaction velocity vs unsubstituted …, peptide at 100 µM [1]: 0%

Binder: YARAAARQARALNRQLGVAA
- Kinase Activity, peptide at 300 µM, radiometric assay [2]: 66%
- Kinase Activity, peptide at 300 µM, radiometric assay [3]: 8%
- Kinase Activity, peptide at 300 µM, radiometric assay [4]: 100%
- Kinase Activity, peptide at 300 µM, radiometric assay [5]: 95%
- Kinase Activity, peptide at 300 µM, radiometric assay [6]: 68%
- Kinase Activity, peptide at 300 µM, radiometric assay [7]: 19%
- Kinase Activity, peptide at 300 µM, radiometric assay [8]: 81%
- Kinase Activity, peptide at 300 µM, radiometric assay [9]: 10%
- Kinase Activity, peptide at 300 µM, radiometric assay [10]: 96%

Binder: KALNAQLGVAA
- % change in MK2 reaction velocity vs unsubstituted …, peptide at 100 µM [1]: 258%

Binder: KKKALNRQLGVAA
- % change in MK2 reaction velocity vs unsubstituted …, peptide at 100 µM [1]: -9%

Binder: YGRKKRRQRRR
- % change in MK2 reaction velocity vs unsubstituted …, peptide at 100 µM [1]: 44%

Binder: KALNRQLGAAA
- % change in MK2 reaction velocity vs unsubstituted …, peptide at 100 µM [1]: 273%

B6: KALNRQdLGVAA (peptide)
peptide: KALNRQ[dL]GVAA-NH2
modifications: N-terminus assumed
SMILES: CC(C)C[C@H](NC(=O)[C@H](C)NC(=O)[C@@H](N)CCCCN)C(=O)N[C@@H](CC(N)=O)C(=O)N[C@@H](CCCNC(=N)N)C(=O)N[C@@H](CCC(N)=O)C(=O)N[C@H](CC(C)C)C(=O)NCC(=O)N[C@H](C(=O)N[C@@H](C)C(=O)N[C@@H](C)C(N)=O)C(C)C
- % change in MK2 reaction velocity vs unsubstituted …, peptide at 100 µM [1]: 257%
